Data taken from patent US20160194394A1 (GOVERNING COUNCIL OF THE UNIVERSITY OF TORONTO, published 2016).
Positions count from the first letter of the chain named. One block for each binder: values may come before it.

Legend:
[1] = biological target: T1, FZD7 receptor expressed on cells (full-length) (UniProt O75084 33-574, limits assumed); experiment: flow cytometry, 200 nM Fab, MDA MB 231 [cont'd]
T1 construct: whole, on cells; MDA MB 231 cells may carry other Frizzled receptors too; also called full-length FZD7 receptor; endogenous receptor on MDA MB 231 cells
Method: (§1) FIG. 3 is a table depicting the binding of the purified Fabs to cells expressing FZD7 (flow cytometry). Small scale Fabs were assayed for binding to full-length FZD7 receptor to an over-expression line in MDA MB 231 cells. In parallel, Fabs were assayed for binding to endogenous receptor expressed on the MDA MB 231 cells. Cells were harvested using an EDTA solution, blocked in 2% FBS/PBS (stain buffer), and stained with 200 nM Fab for 30 min on ice. Cells were washed two times with stain buffer and incubated with anti-F(ab′)₂-APC secondary antibody (Jackson Immuno) at 1:1000 for 15 minutes on ice. All antibodies were diluted in stain buffer. Cells were washed three times with stain buffer and then fixed with 1% paraformaldehye for analysis by flow cytometry. […] The percent of the cell population within the positive gates is indicated.

[2] = biological target: T1, FZD7 receptor expressed on cells …; experiment: flow cytometry, 200 nM Fab, FZD7 over-expression line (MDA MB 231) [cont'd]
Method: as §1

[3] = biological target: T2, recombinant Frizzled receptor 7 (FZD7) cysteine-rich domain (CRD) fused to the Fc region of human IgG (human, UniProt O75084 33-185); experiment: ELISA, 1ug/ml (20nM) Fab [cont'd]
Method: (§2) FIG. 2B is a table depicting the binding of purified Fabs to purified FZD7-Fc measured by ELISA. Fabs purified from 25 ml bacterial cultures were assayed for binding to FZD7-Fc fusion protein (R&D systems) and Fc protein. ELISA plates (384 well) were coated with 2 ug/ml of protein in PBS overnight at four degrees. Wells were blocked with 0.5% BSA/PBS for 1 hour at room temperature, washed three times with 0.05% Tween20/PBS (wash buffer), and then primary dilutions of Fabs in 0.5% BSA/0.05% Tween20/PBS (dilution buffer) were added at indicated concentrations. Fabs were incubated for 1 hour at room temperature, wells were washed six times, and anti-FLAG-HRP (Sigma) was added at 1:5000 in dilution buffer. Secondary antibody was incubated for 45 minutes at room temperature, and wells were washed six times and developed with TMB substrate with an acid stop. The absorbance at 450 nm was read. n.t.=not tested.

Fc control protein [4] = biological target: T3, Fc control protein; experiment: ELISA, 1ug/ml (20nM) Fab [cont'd]
T3 construct: also called Fc protein; control Fc protein
Method: as §2

[5] = biological target: T2, recombinant Frizzled receptor 7 (FZD7) …; experiment: ELISA, 10ug/ml (200nM) Fab [cont'd]
Method: as §2

Fc control protein [6] = biological target: T3, Fc control protein; experiment: ELISA, 10ug/ml (200nM) Fab [cont'd]
Method: as §2

B2: F3 (Fab)
light: DIQMTQSPSSLSASVGDRVTITCRASQSVSSAVAWYQQKPGKAPKLLIYSASSLYSGVPSRFSGSRSGTDFTLTISSLQPEDFATYYCQQGGHYWLITFGQGTKVEIKRTVAAPSVFIFPPSDSQLKSGTASVVCLLNNFYPREAKVQWKVDNALQSGNSQESVTEQDSKDSTYSLSSTLTLSKADYEKHKVYACEVTHQGLSSPVTKSFNRGECGGS
heavy: EVQLVESGGGLVQPGGSLRLSCAASGFNISYSSMHWVRQAPGKGLEWVASISSSYGYTSYADSVKGRFTISADTSKNTAYLQMNSLRAEDTAVYYCARSYYGYYVGYGYSSWSGSGMDYWGQGTLVTVSSASTKGPSVFPLAPSSKSTSGGTAALGCLVKDYFPEPVTVSWNSGALTSGVHTFPAVLQSSGLYSLSSVVTVPSSSLGTQTYICNVNHKPSNTKVDKKVEPKSC
notes: selection round 3; also called Fzd7-R3-F3
% population within the positive gate [1]: 1% | % population within the positive gate [2]: 82.5% | OD 450 [3]: 2.35 | OD 450 (Fc control protein [4]): 0.06 | OD 450 [5]: 2.97 | OD 450 (Fc control protein [6]): 0.07

B5: B2 (Fab)
light: DIQMTQSPSSLSASVGDRVTITCRASQSVSSAVAWYQQKPGKAPKLLIYSASSLYSGVPSRFSGSRSGTDFTLTISSLQPEDFATYYCQQAYAYLITFGQGTKVEIKRTVAAPSVFIFPPSDSQLKSGTASVVCLLNNFYPREAKVQWKVDNALQSGNSQESVTEQDSKDSTYSLSSTLTLSKADYEKHKVYACEVTHQGLSSPVTKSFNRGECGGS
heavy: EVQLVESGGGLVQPGGSLRLSCAASGFNISYSSMHWVRQAPGKGLEWVASISSSYGYTYYADSVKGRFTISADTSKNTAYLQMNSLRAEDTAVYYCARSGGHFYYWYVAAAMDYWGQGTLVTVSSASTKGPSVFPLAPSSKSTSGGTAALGCLVKDYFPEPVTVSWNSGALTSGVHTFPAVLQSSGLYSLSSVVTVPSSSLGTQTYICNVNHKPSNTKVDKKVEPKSC
notes: selection round 2; not the round 3 clone B2 (f33); also called Fzd7-R2-B2
% population within the positive gate [1]: 7.1% | % population within the positive gate [2]: 86.8% | OD 450 [3]: 3.19 | OD 450 (Fc control protein [4]): 0.06 | OD 450 [5]: 3.18 | OD 450 (Fc control protein [6]): 0.13

B8: C1 (Fab)
light: B5 light with A91Y, Y92G, A93H
heavy: EVQLVESGGGLVQPGGSLRLSCAASGFNLYSYSMHWVRQAPGKGLEWVASISSYYGSTYYADSVKGRFTISADTSKNTAYLQMNSLRAEDTAVYYCARAHGSSPGWYYAPYAGGGLDYWGQGTLVTVSSASTKGPSVFPLAPSSKSTSGGTAALGCLVKDYFPEPVTVSWNSGALTSGVHTFPAVLQSSGLYSLSSVVTVPSSSLGTQTYICNVNHKPSNTKVDKKVEPKSC
notes: selection round 2; also called Fzd7-R2-C1
% population within the positive gate [1]: 66.5% | % population within the positive gate [2]: 87.3% | OD 450 [3]: 3.15 | OD 450 (Fc control protein [4]): 0.06 | OD 450 [5]: 3.19 | OD 450 (Fc control protein [6]): 0.14

B9: B2 (Fab)
light: B5 light with A91S, Y92S, A93Y, Y94S
heavy: EVQLVESGGGLVQPGGSLRLSCAASGFNLSYSYMHWVRQAPGKGLEWVASIYSSYGYTSYADSVKGRFTISADTSKNTAYLQMNSLRAEDTAVYYCARYYGWAYYYSYFPAWAGGGIDYWGQGTLVTVSSASTKGPSVFPLAPSSKSTSGGTAALGCLVKDYFPEPVTVSWNSGALTSGVHTFPAVLQSSGLYSLSSVVTVPSSSLGTQTYICNVNHKPSNTKVDKKVEPKSC
notes: selection round 3; also called Fzd7-R3-B2
% population within the positive gate [1]: 15.9% | % population within the positive gate [2]: 86.2% | OD 450 [3]: 2.92 | OD 450 (Fc control protein [4]): 0.06 | OD 450 [5]: 3.18 | OD 450 (Fc control protein [6]): 0.1

Results, then the binder that gave them:

% population within the positive gate [1]: 1.2% | % population within the positive gate [2]: 81% | OD 450 [3]: 1.42 | OD 450 (Fc control protein [4]): 0.06 | OD 450 [5]: 2.79 | OD 450 (Fc control protein [6]): 0.15
B1: D11 (Fab)
light: B2 light with G91Y, G92F, H93P, Y94S, W95G
heavy: EVQLVESGGGLVQPGGSLRLSCAASGFNISYSYMHWVRQAPGKGLEWVASISPSSGYTSYADSVKGRFTISADTSKNTAYLQMNSLRAEDTAVYYCARSVSWWYSWWSWGMDYWGQGTLVTVSSASTKGPSVFPLAPSSKSTSGGTAALGCLVKDYFPEPVTVSWNSGALTSGVHTFPAVLQSSGLYSLSSVVTVPSSSLGTQTYICNVNHKPSNTKVDKKVEPKSC
notes: selection round 3; also called Fzd7-R3-D11

% population within the positive gate [1]: 96.6% | % population within the positive gate [2]: 87.1% | OD 450 [3]: 3.09 | OD 450 (Fc control protein [4]): 0.07 | OD 450 [5]: 3.2 | OD 450 (Fc control protein [6]): 0.1
B3: E9 (Fab)
light: B2 light with G91A, G92V, H93Y, Y94H, W95A
heavy: EVQLVESGGGLVQPGGSLRLSCAASGFNIYYSSMHWVRQAPGKGLEWVASISSYSSSTYYADSVKGRFTISADTSKNTAYLQMNSLRAEDTAVYYCARSAVVHYPAGYWVYWGWYAFDYWGQGTLVTVSSASTKGPSVFPLAPSSKSTSGGTAALGCLVKDYFPEPVTVSWNSGALTSGVHTFPAVLQSSGLYSLSSVVTVPSSSLGTQTYICNVNHKPSNTKVDKKVEPKSC
notes: selection round 3; also called Fzd7-R3-E9

% population within the positive gate [1]: 15.3% | % population within the positive gate [2]: 84.2% | OD 450 [3]: 1.9 | OD 450 (Fc control protein [4]): 0.06 | OD 450 [5]: 2.98 | OD 450 (Fc control protein [6]): 0.13
B4: G7 (Fab)
light: DIQMTQSPSSLSASVGDRVTITCRASQSVSSAVAWYQQKPGKAPKLLIYSASSLYSGVPSRFSGSRSGTDFTLTISSLQPEDFATYYCQQYGYWWVSLFTFGQGTKVEIKRTVAAPSVFIFPPSDSQLKSGTASVVCLLNNFYPREAKVQWKVDNALQSGNSQESVTEQDSKDSTYSLSSTLTLSKADYEKHKVYACEVTHQGLSSPVTKSFNRGECGGS
heavy: EVQLVESGGGLVQPGGSLRLSCAASGFNLYYYSIHWVRQAPGKGLEWVASIYSYSSYTYYADSVKGRFTISADTSKNTAYLQMNSLRAEDTAVYYCARWWPGHYSGYGSGALDYWGQGTLVTVSSASTKGPSVFPLAPSSKSTSGGTAALGCLVKDYFPEPVTVSWNSGALTSGVHTFPAVLQSSGLYSLSSVVTVPSSSLGTQTYICNVNHKPSNTKVDKKVEPKSC
notes: selection round 3; also called Fzd7-R3-G7

% population within the positive gate [1]: 98.2% | % population within the positive gate [2]: 93.7% | OD 450 [3]: 3.22 | OD 450 (Fc control protein [4]): 0.06 | OD 450 [5]: 3.24 | OD 450 (Fc control protein [6]): 0.06
B6: B10 (Fab)
light: B5 light with A91Y, Y92W, Y94S
heavy: EVQLVESGGGLVQPGGSLRLSCAASGFNISYYYIHWVRQAPGKGLEWVAYISPYYGSTYYADSVKGRFTISADTSKNTAYLQMNSLRAEDTAVYYCARSWSYSYYYSHPGWSPVWAMDYWGQGTLVTVSSASTKGPSVFPLAPSSKSTSGGTAALGCLVKDYFPEPVTVSWNSGALTSGVHTFPAVLQSSGLYSLSSVVTVPSSSLGTQTYICNVNHKPSNTKVDKKVEPKSC
notes: selection round 3; also called Fzd7-R3-B10

% population within the positive gate [1]: 0.7% | % population within the positive gate [2]: 80.1% | OD 450 [3]: 2.12 | OD 450 (Fc control protein [4]): 0.06 | OD 450 [5]: 3.06 | OD 450 (Fc control protein [6]): 0.07
B7: B7 (Fab)
light: B5 light with A93Y, Y94P, I96F
heavy: EVQLVESGGGLVQPGGSLRLSCAASGFNISYSSMHWVRQAPGKGLEWVASIYPSYGYTSYADSVKGRFTISADTSKNTAYLQMNSLRAEDTAVYYCARVYWSSSYWAGGYWVGSAFDYWGQGTLVTVSSASTKGPSVFPLAPSSKSTSGGTAALGCLVKDYFPEPVTVSWNSGALTSGVHTFPAVLQSSGLYSLSSVVTVPSSSLGTQTYICNVNHKPSNTKVDKKVEPKSC
notes: selection round 3; also called Fzd7-R3-B7

% population within the positive gate [1]: 11.9% | % population within the positive gate [2]: 86.9% | OD 450 [3]: 2.87 | OD 450 (Fc control protein [4]): 0.05 | OD 450 [5]: 3.15 | OD 450 (Fc control protein [6]): 0.07
B10: C12 (Fab)
light: B5 light with A91S, Y92S, A93Y, Y94S
heavy: B9 heavy
notes: selection round 2; same four CDRs as Fzd7-R3-B2 (f33); also called Fzd7-R2-C12
